Test [1] addresses trimeric Spike K417N/E484K/N501Y (SARS-CoV-2) (UniProt P0DTC2). The test can be described thus: Luminex bead-based binding assay.
Test [2] addresses trimeric Spike, full P.1 variant (SARS-CoV-2) (UniProt P0DTC2). The test can be described thus: Luminex bead-based binding assay.

Fold reduced binding affinity data for one substance are collected here from article PMC8452523.

Consider REGN10933 (antibody), for which the results for the fold reduced binding affinity in test [1] and in test [2] were 60 fold and 195 fold, respectively.
